Laboratory results: patent US12458681B2, “Compositions and method for treating acute radiation syndrome” (Prince Biotech, LLC, priority 2014, dated 2025)

Assays:
[1] = molecular target: Insulin-degrading enzyme (IDE) (Homo sapiens, UniProt P14735); test: Differential Shift Assay of PIF mutants; type: binding
Text: Thus 2 putative mutants were conceived, mutant-1: P6→E6, and mutant-3:[…]; c. Table represent the mutants that were considered, of them 2 were synthesized based on their putative availability as options for ligand-receptor disruptors.

[2] = system: NOD mice; conditions: adoptive transfer and spontaneous disease, long term; cited from earlier work

Sequence | binding to IDE [1] | diabetes development [2]
MVRGKPGSANKPSDD [mut3] | bind | 
MVRIKEGSANKPSDD [mut1] | bind | 
GRVDPSNKSMPKDIA [PTFscr] |  | no effect
